PMC5093203 (Pharmaceutical Research, 2016)
Marks after values point to notes of the source that are not given here.

Legend:
[1] = LDC sheep, SC commercially formulated human insulin; cited from earlier work
[2] = Hydrodynamic size by dynamic light scattering (DLS); assay type: physicochemical; details: 25 ± 1°C, 90° scattering angle, 633 nm, ~85 μM in 1x PBS, viscosity-corrected
Protocol: Weighed-samples of freeze-dried powder were dissolved in 1x phosphate-buffered saline (PBS) to a final concentration of ~85 μM. Concentrated protein stock solutions were diluted ~20-fold in 1 × PBS buffer to achieve a final concentration of ~85 μM. Protein concentrations (OD276 (1 mg/ml) = 1 for a 1 cm cuvette) were measured by NanoDrop (Thermo Fisher Scientific, Waltham, MA, USA). All samples were filtered through Whatman Anatop10™ low protein-binding filters (Whatman, Kent, UK) before the DLS experiments. Solution viscosity was measured by an m-VROC® (RheoSense, Inc., San Ramon, CA, USA) viscometer and light scattering data were corrected using the measured viscosity.
DLS measurements were carried out at 25 ± 1°C at a 90° scattering angle using an ALV/CGS-3 Compact Goniometer system with ALV/LSE-5003 Light Scattering Electronics and Multiple Tau Digital Correlator (ALV®-GmbH, Langen, Germany). The laser operating wavelength was 633 nm. The apparent hydrodynamic radius Rh was estimated via the Stoke-Einstein equation (Eq. 1):1 Rh=kBT/6πηD where, Rh is the apparent hydrodynamic radius (m), kB is the Boltzmann constant (kg^●m^2/s^2●K), T is the absolute temperature (K), η is the viscosity (kg/m•s), and D is the diffusion constant (m^2/s). DH is the apparent hydrodynamic diameter in nm or 2 Rhinnm . The viscosity measurement was performed with a solution concentration of 0.49 ± 0.02 mg/mL at 25°C. Viscosity mean and SD was determined from n ≥8 and reported as cP, (g/cm•s) = 10^−3 × Pa•s (kg/m•s)

[3] = design: method as in 2 sources, ref 28 = [28]; PMID 22353017; doi:10.1021/mp200470c; 28. Gokarn YR McLean M Laue TM Effect of PEGylation on protein hydrodynamics Mol Pharm 2012 9 4 762 73 10.1021/mp200470c 22353017 ||| ref 28, 34, 35 = [28]; PMID 22353017; doi:10.1021/mp200470c; 28. Gokarn YR McLean M Laue TM Effect of PEGylation on protein hydrodynamics Mol Pharm 2012 9 4 762 73 10.1021/mp200470c 22353017 || [34]; PMID 23499718; doi:10.1016/j.jconrel.2013.03.006; 34. Kaminskas LM Ascher DB McLeod VM Herold MJ Le CP Sloan EK PEGylation of interferon alpha2 improves lymphatic exposure after subcutaneous and intravenous administration and improves antitumour effi || [35]; PMID 19686787; doi:10.1016/j.jconrel.2009.08.005; 35. Kaminskas LM Kota J McLeod VM Kelly BD Karellas P Porter CJ PEGylation of polylysine dendrimers improves absorption and lymphatic targeting following SC administration in rats J Controlled Release; details: 14.3-kDa egg white lysozyme with vs without 20-kDa PEG; cited from earlier work
[4] = Serum pharmacokinetics in non-LDC sheep (IV, SC); assay type: in vivo, merino sheep
Protocol: (§1) Surgery was performed under aseptic conditions.
(§2) Blood samples (3 mL) were collected into 4 mL serum collection tubes (Becton, Dickinson and Company, Scoresby, Victoria, Australia) at the following time points (hour): predose, […] (1 min, IV only), 0.083 (5 min, IV only), 0.25 (15 min, IV only), 0.5, 1, 2, 3 (SC LDC only), 4, 6, 8, 10, 12 (all IV and SC LDC), 18 (SC non-LDC only), 30 (all SC), 39 (SC non-LDC only), 48 (all SC), 54 (all SC), 72 (all SC), 96 (SC LDC only), and 120 (SC LDC only) hours postdose. The jugular cannula was flushed with heparinized saline (50 IU/mL) between samples to maintain patency. Blood samples were allowed to stand at room temperature for up to 1 h and were then centrifuged for 10 min 6000 rpm to separate serum.
(§3) Noncompartmental pharmacokinetic parameters for the rat study were determined using WinNonlin® professional v5.3 (Pharsight, St. Louis, MO, USA) and for the sheep study using Watson^TM (version 7.4.2 PRD872, Thermo Fisher Scientific, Inc). Concentrations below the lower limit of quantitation were assigned a value of zero and the zero result used in the calculation of means and standard deviation using MicroSoft® Office® Excel® 2010 (version 14.0.; Redmond, WA). Descriptive statistics were calculated as appropriate. SigmaPlot® v11 (Systsat Software, IC., San Jose, CA, USA) and Excel® were used for the graphics.

[5] = rat, in vivo, sc; cited from earlier work
[6] = design: species or system Sprague Dawley rats; details: rat, in vivo, iv
Protocol: The 5/6-nephrectomized and sham male Sprague Dawley rats were obtained from Taconic Farms (Albany, NY, USA). Animals were housed two per cage in polycarbonate cages with filter tops. Animals were maintained on a 12/12 h light/dark cycle (lights on at 6:00 AM). All animals received water and LabDiet 5001 (PMI Nutrition International, Brentwood, MO, USA) ad libitum. Animals were monitored daily during the 5-week time frame that allowed progression of the disease state. Seven weeks post-surgery, blood was collected by tail clip into serum tubes for measurement of serum creatinine and blood urea nitrogen. Three days later, urine was collected for 24 h from animals housed in metabolism cages. […]
BIL concentrations in serum and lymph were determined by ELISA performed by the bioanalytical testing facility Charles River Laboratories Preclinical Services (Senneville, Quebec, Canada) as described previously for rat serum ([27]). The assay quantitation range for rat serum was 20 pM to 500 pM. […] Samples above the upper limit of quantitation were diluted and reanalyzed to gain results within the calibrated range. […]
Noncompartmental pharmacokinetic parameters for the rat study were determined using WinNonlin® professional v5.3 (Pharsight, St. Louis, MO, USA) and for the sheep study using Watson^TM (version 7.4.2 PRD872, Thermo Fisher Scientific, Inc). […] Descriptive statistics were calculated as appropriate. […]

[7] = Serum pharmacokinetics in lymph duct cannulated (LDC) sheep (IV, SC); design: species or system merino sheep; details: in vivo
Protocol: as §1, §2, §3

[8] = in vivo; cited from earlier work
[9] = in vivo, sc
Protocol: Using a parallel group design, BIL was administered by single dose SC injection to non-LDC control sheep and to LDC sheep with a surgically placed popliteal lymph duct cannula (Table I). Blood was collected in each group, and lymph was continuously collected in the LDC sheep. BIL was also administered by bolus IV injection to a separate group of non-LDC animals for determining bioavailability and PK linearity.
Surgery was performed under aseptic conditions. Castrated male merino sheep (H.M. Barty & Sons Merino Stud, Robinvale, Victoria, Australia) weighing 31–48 kg were used. […]
In LDC sheep, lymph samples were collected in pre-weighed tubes containing 10 μL/mL of 10% EDTA at the following time points: Predose, 0–1, 1–2, 2–3, 3–4, 4–5, 5–6, 6–7, 7–8, 8–9, 9–10, 10–11, 11–12, 12–24, 24–36, 36–48, 48–60, 60–72, 72–84, 84–96 h post dose. At each time interval, the amount of lymph collected was determined gravimetrically. […]
BIL concentrations in serum and lymph were determined by ELISA performed by the bioanalytical testing facility Charles River Laboratories Preclinical Services (Senneville, Quebec, Canada) as described previously for rat serum ([27]). The assay quantitation range for rat serum was 20 pM to 500 pM. Assay quantitation range for sheep serum was from 20 pM to 500 pM. […] The quantitation range for sheep lymph was also 20 to 500 pM. […]

[10] = non-LDC sheep, SC 120 nmol, serum, mean ± SD, N = 5

Substance: insulin
- % of the insulin dose recovered in the peripheral lymph [1]: 17.3%
- apparent hydrodynamic diameter (DH) [2]: 2.1 nm

Substance: egg white lysozyme
- hydrodynamic diameter [3]: 4.0 nm

Substance: 20-kDa PEG egg white lysozyme: 14.3-kDa egg white lysozyme with addition of 20-kDa PEG
- hydrodynamic diameter [3]: 9.6 nm

Substance: insulin peglispro [BIL]
- AUC0-t ([4]; in vivo, iv, 20 nmol): 0.0125667 ± 0.0018009 µM·h
- C0 ([4]; in vivo, iv, 20 nmol): 11.133 ± 1.234 nM
- CL ([4]; in vivo, iv, 20 nmol): 0.70 ± 0.09 mL/min/kg
- T1/2 ([4]; in vivo, iv, 20 nmol): 1.6 ± 0.1 h
- Vdss ([4]; in vivo, iv, 20 nmol): 0.05 ± 0.01 L/kg
- AUC0-t ([4]; in vivo, iv, 40 nmol): 0.040075 ± 0.0124583 µM·h
- C0 ([4]; in vivo, iv, 40 nmol): 27.9 ± 6.124 nM
- CL ([4]; in vivo, iv, 40 nmol): 0.53 ± 0.21 mL/min/kg
- T1/2 ([4]; in vivo, iv, 40 nmol): 2.8 ± 0.3 h
- Vdss ([4]; in vivo, iv, 40 nmol): 0.04 ± 0.01 L/kg
- AUC0-t ([4]; in vivo, iv, 120 nmol): 0.1116667 ± 0.0150444 µM·h
- C0 ([4]; in vivo, iv, 120 nmol): 60.4 ± 1.039 nM
- CL ([4]; in vivo, iv, 120 nmol): 0.47 ± 0.06 mL/min/kg
- T1/2 ([4]; in vivo, iv, 120 nmol): 3.3 ± 1.2 h
- Vdss ([4]; in vivo, iv, 120 nmol): 0.07 ± 0.04 L/kg
- % bioavailability ([4]; in vivo, sc): 123%
- AUC0-t ([4]; in vivo, sc, 120 nmol): 0.14296 ± 0.0838207 µM·h
- T1/2 [4, 10]: 7.5 ± 5.1 h
- Tmax [4, 10]: 2.4 ± 0.9 h
- % of dose excreted unchanged in urine [5]: 2.5%
- apparent hydrodynamic diameter (DH) [2]: 7.6 nm
- clearance in sham versus 5/6-nephrectomized rats (in words) [6]: similar
- AUC0-t ([7]; iv, 120 nmol): 0.1395 ± 0.0606932 µM·h
- C0 ([7]; iv, 120 nmol): 70.175 ± 13.6001 nM
- CL ([7]; iv, 120 nmol): 0.37 ± 0.12 mL/min/kg
- T1/2 ([7]; iv, 120 nmol): 5.7 ± 2.1 h
- Vdss ([7]; iv, 120 nmol): 0.04 ± 0.01 L/kg
- % bioavailability ([7]; sc): < 2%
- % bioavailability ([7]; sc, 120 nmol): 1.7%
- AUC0-t ([7]; sc, 120 nmol): 0.0025945 ± 0.0025636 µM·h
- Cmax ([7]; sc, 120 nmol): 0.4153 ± 0.384 nM
- T1/2 ([7]; sc, 120 nmol): 4.6 ± 4.0^a hours
- Tmax ([7]; sc, 120 nmol): 2.3 ± 1.0 h
- PK properties in renal insufficiency (in words) [8]: unaffected
- % of dose recovered in the peripheral lymph [9]: 88%

Substance: leptin
- apparent hydrodynamic diameter (DH) [2]: 4.3 nm
- apparent hydrodynamic diameter (DH) ([2]; listed as Leptin): 4.2 nm
